Biological target: T1, mouse TNFR2-Fc fusion protein (mouse, UniProt P25119 23-258)
T1 construct: mouse TNF receptor 2 (TNFR2)
T1 sequence (looked up): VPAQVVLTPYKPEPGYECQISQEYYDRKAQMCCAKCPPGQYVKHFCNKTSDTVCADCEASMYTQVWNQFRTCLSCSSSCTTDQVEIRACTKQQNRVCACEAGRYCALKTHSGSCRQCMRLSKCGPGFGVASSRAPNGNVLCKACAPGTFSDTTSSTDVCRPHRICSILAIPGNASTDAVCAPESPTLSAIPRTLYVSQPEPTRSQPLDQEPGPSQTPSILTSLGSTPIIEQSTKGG
Test: ELISA; TNFR1-Fc or TNFR2-Fc coated at 1 µg/ml in PBS, 4 °C overnight; TNF muteins in 2% skim milk powder in PBS, 1 h RT; detected with anti-TNF clone F6C5 and HRP anti-mouse IgG
Conditions: both partners purified

- EC50: 0.045 nM
B1: GCN4-sc-mTNFR2 (ligand)
chain: not shown
